From the DeepSol protein solubility set

Assay: soluble on expression in E. coli; label from the status in PepcDB or PDB records
With “GPGSMGNGCCGCCDAKPDYKLGRPLVSGKTTPCFNDGRLFKIVKGDIWYFYNDTQDYQMKVTADFGNGSNIVAMSDTELVRKNDSGACTATVSVFPLETKAMVQTKEVNGFNVKYSGIAFTDADRQKLRQKAAAQVSADLAEMRKLRERNPKVNNQNRLLKVARGKGKMYVDTSFPPTSQSLIRSGIDSDPDACLKRPETIAWRRPEDFLPKKWHPKIRLFGNISPKDISQGQLGDCYYLCALAALAEHDAAIKGIFKNHHGCCIRSQERKHGAWRVNLNISGWWRTIIIDSYLPTVQLLPVFARNRNHPNELWVSFAEKAYAKVFGSYQAIVAGYPWQALEDLTGFPAYNFGNMWRTAQTDTETRKKLFDSLHRWNKKYLICIATPSNGALKMAGKQLSANQWEALFEKAGLRIGHAYSVLDVRHFPLHRLCMLKIRNPWGSHVEWSGDWGDDSPLWNRYPFIKLACRPEKKADGIFWMEWRDVSKFFDSGSVCFRRGHWFRSWYDYRVLGSFEDLVCDTALLIIVNKTSQFPAYISLHQKDCRGLATSDPDSKYACVMISISEGDINGSQQKVVANSSENPEEPSTEYLFQESRSVSLYYKFTKGHKYLVIPRRMKSSTGNNVPKKKYVIALRTQTKVSSEDVVVNIVRLDKNNAVFKNVASFDAGTPTSLNTLYQIKDGNNVFRTYRSDNLRKGKKQHNAEFELVM” the “soluble on expression in E. coli” value was “not soluble”. With “GPGSMGSEESNNICAYKRTISLAKIYIVLLVKTAMLRYSRLCFPKMGCEEIKRKARRVQLQPTEYLAQHRMQVWQLRFKEMGPPFSRVWVALGGKMRRRRVGRQVDVKDMRYYWRPIEPQYQRLYMSRLRIRDHSNKLRQPMRLRATNADIGSGSSSIEWERASNRKYGAMLAPPKRQDFEFRVV” the “soluble on expression in E. coli” value was “not soluble”. With “GPGSMGSGCSTESSTDVRCSFVGLMDEKKESWRGRLLGDIGKDPTGVTRDFPRTQVYVAAPNRNNYYREKQDHVSVLVLKDKEDESKYFSDRNERVRESLELLVELCGEDSSVIKSEWEKQQKDIPDSSSLLMTVLLESGMMRATEANTENGGAGGETDAVTNIQNGGGGYAPKYTVHSKALRLMQYMVQSVAFFSTQHVTDALRFSWCKHMQDVSWAVYVYTEGGACGKERNSSDEILVLRHMHTLRHYVGQSERSTHPRFEVDWACTFHIDLKRLLDANNTAAKEATFAPEGEVQRIDGELLAARIESPNRKLCRITSTWKKRRSELEGRLMECFGVELTKVDVLDENGPLSALNSGG” the “soluble on expression in E. coli” value was “not soluble”. In the case of “GPGSMHAFRTRDITLRVPSKDKLLRFSFCSSRHLLAETIRRHDLLRSTGAHVDFLQLLGTQITFTSLLASALEGEERVEARFTAEEATILTEALALGECRCYLRPEYNAQLAECGLPTFPLRVNRILYRQEKPFSSVVHADLAELLQPPCDVASSFAAASSGANEASGAPFSLYLPDMERRVPLEAWKSFFSYNSSLHAYNYLRRSDGSVPAVWLQSRIDAVRLVDHGFLNVDSTAAAAAWQRGEACSDEDDEKAQDIRRALLHAIPFSFGVVVTPLAAGVAVDQRVNQLNRVVMEAAALLSAPSGGGATVTSALQPLLDRCAEKHTACQHILSLVSGDHDGAYQAAVAARQYNDDPAQVAAVVDPIRRALGVQDFVVPLAATEAARSGLDFFCRCSKQNVLESLVSAPPRALESLKGSDNTVHCSFCGRRYKLAGAEWQELEMARSASTPPQ”, the “soluble on expression in E. coli” value is reported as “not soluble”. In the case of “GPGSMIFFFTLNLHDRSSLDLRVEFLFSCSDSSDSVAQHLRAIGMRGQLVQKGAATLYAGPKIASYTDACEAPVAMWEGAIPLKHERVLNGGVATRVVKKTYSHPPEIHPTNLSFNDIDSMYCLGNDELIKYFPEGVGGKMMQLMPPGHPRGFLYRKQSHLLNCFIDKLPFWQSKEKALRSLTNGRPGFIMDGPTGCGKSALLCQAVHYARSRDIITLYIANAKAWTHGEWCWPSTILPGFFDAPDAAREFLRTVAEANGSLLQAWELRVTPQDLPLEQGEKQPRSLYDLCEWGHRAVAPASIDRQSVCIKFFFDEIRAEKTKPIIIAVDGWNLFSHETHFRYPHPDFLRTLTTLNDGLTDVDLYPQELPRIPASRLSFVRGLNKLILSKQDPNKFFITCTTRDFKPFDGVSGFADVENDRFKNSLDEYAPYDPEKDSFFHPMQVENFTEYEYRAFLRFAINSGELAGLGWGPMWHYSSDFERKLYKIDFMSDRNPQRVVDHYHQELVWRYEYKRTRQKQYLLARRKMWQGAEVSNPLRNGK”, the “soluble on expression in E. coli” value is reported as “not soluble”. In the case of “GPGSMITEGAATPCAEVPAIRRVRRTRSRFERLVRPEDVAPGEPTPSVEGWVLFLTNLPPNTTMDHITDLFVTREGEGLWNVREVKMPLDKNCECCGYALVELEKREAFEAALRDMEGMTLSFAEGEPPNGEDAWRLHIAPTFLGEKDDEEEELVAGGKRERE”, the “soluble on expression in E. coli” value is reported as “soluble”. With “GPGSMKLTFYRLLGCPYCAKVEAVLQYHDVPYEEVHVDPLSGKGLPDRRYQLAPQLYLAPLAKRNSGGAEAAATDSNGVYVVDSAEIVSRLSGPLKYAADIANPRISATRDWITNHFHGASFAITNNSFCDAYATYAYVTPSNYQNFLYHVVGSAALSVLSRYKIQPRLIAKMECADGPAAATPTGAPASTDSNGLWMLSEASRKALAATVRFGAVEEWLRAELQTFLQRRPADKVFHGGSSPDLADVEMYGVTRVVDQHPRLGAVVREGAFGEWQTAMREKLKANTGSVYA” the “soluble on expression in E. coli” value was “not soluble”. For “GPGSMKRSRRATQQEDVMRALKEGVQALSVSSALSTKDLVCRGDHARAIQQFLEDEKHHTMQIFGMPGTGKTATVNFALAQLVSRRGTKPTAVFLNGFVVQKSSDIYYTLHHHLTKARLGAVEPCPVAQCASRIEKRFRHGWGGKPPALCVIVVDEVDKILEKHSKGFFKVVDWLTLPYANCKLITISNSMELQLDAKTKSRLGVVNQLVFSSYGTQELREILVHRVGAIEPKLFADQAVNQLCTQTASHYGDVRRLLQSASAAICGVLMRMRDDAVDVSSTDGIITLREIHTVVRQIFHDRFVEFITTMRMPALFITVAVLGKETEALIRKREVDCRIPLERLLAITQQAQRKCMNVLRPINRAAFMEEIELLRQVSLIEVCIGEDRIPIRCVDELLDAKEEVFVLLLQPYQMVVDSCRLHDAFGATYGAALHL”, the “soluble on expression in E. coli” value was “not soluble”. For “GPGSMLDEVLHSRVVQALLGALVMRELYSDAAVLLASVPPVLDTGGDTSSKDFGGIPSPLLVATRQDTLASLASFRQCVAARRWVEAVQIIDGSATAQSWAQATPLCAMVAFVRLEMDDPKAARALLLPYLASLPEPPSWEALSTAPVEHAQLWDNFTSHYVFSTTLLAKASFMSGSAYLNISAALLQRALRLSPSYAPARLFAEFVLSFEAQQQHVDAAVSASDYPKVLSVTAEMLRMPEVTRLVRAELYLVRTQAQWMRGQPLEVVHEASRCEQCDPQCALAFRLRADAFAMMSRETEAAADLAVAKHLNARVGALFDELQVQRSRRNAAQVEAKAKRNSVPAFKSFPSASAPLRSSATESFCGSTRRSGAQARMSTDTELSPSLRTHYDVLGVSSNASEAEIRRRYRRLTLQLHPDRLVGAAESDRRAALEAFQLLGNAYSVLSDTQLRATYDAGLPGLH”, the “soluble on expression in E. coli” value was “not soluble”. With “GPGSMNAASYSGSGLASAATVEDVVKPDTIAAILAQLKEQDVRIGRLEAAVERSAINRTHFDILTMAGVTADFVCDEISFHNRSTVEFNALPCKVTLDYPCGELSILLDDADSDLSFLGVTLRVDCITDCHLLVDPDNCSVVVDTNTSKITDVTQLVLVGPTQEATRELYEALRDVVAQRRPPCSPAPDTTTTTTRNSSRALINRSEGEYESTLGGDGKLFSIEATPNNAGTTRNNVDASSSPRLQLSNTLPCDRTAHTPVDPRRPNTLPSFSANRKGTQQE” the “soluble on expression in E. coli” value was “soluble”. For “GPGSMNIQGMALHGHMKPVTMIKFNREGDLLFSTAKEPNVSVWYTKTGERLGTYDGHSAISACDVNNYSTLLVTGGMDFKAKLWCVETGEELANIMLRTPARAVGFSHDDNLLMVSTSRKMGQKSAVQLYNLPFLPPKDGYSIHPVNTVFNPCTEFVSENDDVTFAIWGPTNDTIYYSTSDGSVAILDVETMSTVCTHKPHEETINRISFDSNYYTLITASKDKTARLLDSRDLSVVQTYTSDVPVNDASISPRGDHVIIGGGMDAQDVTTQGGQTTFEVKFYHKVHEKQLGQVRCHFGTINSVCFFPDGRGFASGAFDGLVKLHRFDDKYSSTPGAIPLWTPEGI”, the “soluble on expression in E. coli” value was “not soluble”. In the case of “GPGSMNLELYVTLADLSRLPRGEPHDVKTLICRADTVRAPRPRELLSGRVFDISGQLLDTEYKGMPGETCVHVFFYDEWASAASFIERDDIVILKGFTVYDTPRVGDHDVEFPFFVTPIPHMAALRALQKGHKDDIMEVTVTADALETPNIRVMPKRLWGSYIANDMQCPRTNND”, the “soluble on expression in E. coli” value is reported as “soluble”. For “GPGSMPHSMDTTLFSDENRIDRGDSLLFHCVQLSQGGTDSHRYFFGCYFPRWRGFYMDEARELPGPLGYNVTRHFPAFPFDVYLKDDGEHFLTDDFQIGSIFTLGGPLNQRDDGQKRYKVVHCDDSQLRTRTGKTLAFIGNNVSGLLQQTHRVSGEAIDALKRIREAYIFNVGNGIPEVGIKAMGRHFRKVGSDGRRWMSYEGIVRFVKDSRNFNATLSFSDTQRTEEDVNTVATCIYNAFPKNEEECIDYDFFMDYVRGPMSQERKDAVWNIFRRMDYDRDGNLNIIDIQACYNTQDHPTCSVDHLFQSDKMLKGFLTIWDENERCGLVPYAEFLDYYNGVSAVLEDDKVFFDVLNNQWKLL”, the “soluble on expression in E. coli” value was “soluble”. For “GPGSMPLTAAGMRTLMRQMQEVQEHPVDGVQVRPSDSMNEYHFDVDGPEGTPFAAGRFHVVLIFDEQYPEVPPKGFFRTKIFHPNISERGDICVNTLKRDWSPMLGLRHILVVIRCLLIEPNPESALNEEAGRLILEEYAAYERKAAMYTAINAARPNGVPRFTLPEVKAEKASGSVTACASAGAAADSGASATAAAAAASASSMANGGAPSTATRGLTLSEANCHPGSATAAEKAEKSKKKALRRI”, the “soluble on expression in E. coli” value was “soluble”. In the case of “GPGSMPPTHLLPTIDVSLRDKLSRFVESRGLLQMALEIATDDERRFDLAVQLKQLLLAHEIASAANVASHWKQVGDIALEQGYFEMAIESLEKCNDWSGLLLIYTSLNDMEAISRLGDRCLQRGQANLAFTCYHLTQRHAECVELLQKTGKTGDAAFYARTYYPSLIEDAVAKWRVSVASIPRVSQALASPAAYPNLFPSLRNVDLLPPKGSEADAPLNAQPPPPGASASLHGSCTAPTVADWFQPAAAAPQQLMHPPPLPDNVDSEPSGMQELADEEETWGED”, the “soluble on expression in E. coli” value is reported as “soluble”. For “GPGSMPSKRATRVQKLHEGTGDDNLPVFSIFIEKEGEGQYGRIDIEIFVNKVPKSCEIFLHSCPAALTGDKRVSKPSLVRQHRFLRLTNEGLQVGERPVSRLVSLSDIENEIGRVNHGIGVVSLCRSSNTFDESFFFCLTDNRTELESLDKRHTAFGRVVYGLELLFLLRDALIPYVKEGCVIEGSPYAISDILPKAAT”, the “soluble on expression in E. coli” value was “soluble”. For “GPGSMSGGSTALKLQRLLEAEGAVIHSALQVRALPSMGGGMGVVLTERLAAGAVLARFPFRSMITARKARFNLAMAEVALELLEGHVATASTNNGSEGDNGSAGPCAATDVLHVIPFASRVWSEYEFETRVRSRRLRQLIDAKVEELAGALDSTETIVCYVLLMAALYGRLSKHARLRRSGADDGAADEEASVSGTEACACGDEAGPAPTLHYTHENAWMRTWIHALPAQYDNLLELVPVPEDSPPCLAQHGTEPECAARAPSVLSGNATTASPPPPLLARVSAYTKSSGWLRSYISLCRFQASVAREQQAIQRRHAKCCAALRCLQRLPRGVEVTEELADAGHGAAAPQNRVFASCGSSPSSSQQDCGRHDHGAACTLGQFLWAFNTLMSRGFYFPEATWALMPFVDYFNYALESNGTMYPQEDDPEDPGCFTNLLLAKTSRNGIGSVAPLMAAAAPRKQQWRTALRTARVGKAAVPLANYQTYEFQLVRPTCPPSEQVMLHYGAYSDVELLMWYGFTLRPSLLPAPQLAAAPEGRKKGTIPVLPPCLSDADGSLLHAAHGLRLALSQLASATTRVAYYRRWVAPLHRCDGAAASDADAAAACKTWLAALHCAYRLPLSPIANAEGKYPEATPGATWLDELLSAFAQTPAVAAPCTDAASEDEAAYRIDAWMRRWGSERWPGFAASAFPNITKGCAFGVLGLSPVLRAAVHSSFWTPTPERSSLSAGERLLVVRGLAWAELYVNMTAAAHADGWTTSSVPASAAAAECARTMSVDQWTLLRFLALESTDAALEEYVEYVSESEG”, the “soluble on expression in E. coli” value was “not soluble”.
